Assay results: US20220213176A1 (SHANGHAITECH UNIVERSITY, published 2022)

Tests used:
[1] = target: SARS-CoV-2 B.1.617.2 pseudovirus spike (SARS-CoV-2); test: cell-based or functional assay
[2] = target: SARS-CoV-2 K417N+E484K+N501Y+D614G mutant pseudovirus spike (spikeΔ19) (SARS-CoV-2, UniProt P0DTC2 14-1254); test: cell-based or functional assay
[3] = target: SARS-CoV-2 N501Y+D614G mutant pseudovirus spike (spikeΔ19) (SARS-CoV-2, UniProt P0DTC2 14-1254); test: cell-based or functional assay
[4] = target: wild-type SARS-CoV-2 pseudovirus spike (spikeΔ19) (SARS-CoV-2, UniProt P0DTC2 14-1254); test: cell-based or functional assay
B.1.351 S-RBD [5] = target: T1, B.1.351 S-RBD (SARS-CoV-2, UniProt P0DTC2 319-541); test: BLI (Octet RED96), biotin B.1.351 S-RBD on SA sensor, 1:1 fit
T1 construct: also called spike RBD of B.1.351 (Beta Strain)

B.1.351 S-RBD [6] = target: T1, B.1.351 S-RBD; test: BLI (Octet RED96), biotinylated B.1.351 S-RBD on SA biosensor, 1:1 binding model

B1: S-D4 (antibody, V domains shown)
VH: QVQLQESGGGVVQPGRSLRLSCEVSGFTFSDYGMHWVRQAPGKGLEWVAVIWSEGSTEYYADSVKGRFTISRDNSKDTLYLQMNSLRAEDTAVYYCARPGYPTSTDRSPAAAGARQYYYYGMDVWGQGTTVTVSS
VL: NFMLTQPHSVSESPGKTVTISCTRSGGSGAANYVQWYQQRPGSSPTTLIYEDSRRPPGVPDRFSGSVDTSSNSASLTISGLQTEDEADYYCQSYDSSNHVVFGGGTKLTVLG
notes: also called S-D4 dimer; S-D4 IgG4
[1]
  NT50 (B.1.617.2) (nM), pseudovirus neutralization: 0.24 nM
[2]
  NT50 (B.1.351) (nM), pseudovirus neutralization: 0.66 nM
[3]
  NT50, N501Y+D614G spike pseudovirus neutralization: 0.042 nM
[4]
  NT50, wild-type SARS-CoV-2 pseudovirus neutralization: 0.48 nM

B2: S-E6 trimer (T4F) (other)
heavy: QVTLRESGPGLVKPSETLSLTCAVSGGSLSSVNYYWSWIRQHPGKGLEWIGYIYYSGSTNYNPSLKSRVTMSLDTSKNQFSLKLSSVTAADTAVYYCATPGAIMGALHIWGQGTLVTVSSASTKGPSVFPLAPSSKSTSGGTAALGCLVKDYFPEPVTVSWNSGALTSGVHTFPAVLQSSGLYSLSSVVTVPSSSLGTQTYICNVNHKPSNTKVDKKVEPPKSGGGGSGGGGSGGGGSPGSGYIPEAPRDGQAYVRKDGEWVLLSTFLGHHHHHH
light: QAVLTQPSSASSTPGQRVIISCSGSSSNIGSNTVSWYQQVPGAAPKLLIYFDYRRPSGVPDRFSGTRSGTSASLGISGLQSEDEADYYCAAWDDSLSAWVFGRGTKLTVLGGLGGLVDYKGQPKAAPSVTLFPPSSEELQANKATLVCLISDFYPGAVTVAWKADSSPVKAGVETTTPSKQSNNKYAASSYLSLTPEQWKSHRSYSCQVTHEGSTVEKTVAPTECS
notes: also called trimer S-E6; trimeric S-E6
[1]
  NT50 (B.1.617.2) (nM), pseudovirus neutralization: 0.007 nM
B.1.351 S-RBD [5]
  Kd: 0.58 nM
B.1.351 S-RBD [6]
  Kd: 0.576 nM

B3: S-E6 (antibody, V domains shown)
VH: QVTLRESGPGLVKPSETLSLTCAVSGGSLSSVNYYWSWIRQHPGKGLEWIGYIYYSGSTNYNPSLKSRVTMSLDTSKNQFSLKLSSVTAADTAVYYCATPGAIMGALHIWGQGTLVTVSS
VL: QAVLTQPSSASSTPGQRVIISCSGSSSNIGSNTVSWYQQVPGAAPKLLIYFDYRRPSGVPDRFSGTRSGTSASLGISGLQSEDEADYYCAAWDDSLSAWVFGRGTKLTVLG
notes: also called S-E6 dimer; dimer S-E6
[1]
  NT50 (B.1.617.2) (nM), pseudovirus neutralization: 0.065 nM
[2]
  NT50 (B.1.351) (nM), pseudovirus neutralization: 0.32 nM
[3]
  NT50, N501Y+D614G spike pseudovirus neutralization: 0.021 nM
[4]
  NT50, wild-type SARS-CoV-2 pseudovirus neutralization: 0.025 nM

B4: S-B8 (antibody, V domains shown)
VH: QVQLVQSGGGLIQPGGSLRLSCAASGFTVSLSHMNWVRQAPGKGLEWVSITYGDGNSDYADSVKGRFTISRDNSKNTLYLQMNSLRAEDTAVYYCAREYYYGMDVWGQGTTVTVSS
VL: not shown
notes: also called S-B8 dimer
[1]
  NT50 (B.1.617.2) (nM), pseudovirus neutralization: 0.37 nM
[2]
  NT50 (B.1.351) (nM), pseudovirus neutralization: 1.2 nM
[3]
  NT50, N501Y+D614G spike pseudovirus neutralization: 0.53 nM

B5: S-B8 trimer (other)
heavy: QVQLVQSGGGLIQPGGSLRLSCAASGFTVSLSHMNWVRQAPGKGLEWVSITYGDGNSDYADSVKGRFTISRDNSKNTLYLQMNSLRAEDTAVYYCAREYYYGMDVWGQGTTVTVSSASTKGPSVFPLAPSSKSTSGGTAALGCLVKDYFPEPVTVSWNSGALTSGVHTFPAVLQSSGLYSLSSVVTVPSSSLGTQTYICNVNHKPSNTKVDKKVEPPKSGGGGSGGGGSGGGGSPGSGYIPEAPRDGQAYVRKDGEWVLLSTFLGHHHHHH
light: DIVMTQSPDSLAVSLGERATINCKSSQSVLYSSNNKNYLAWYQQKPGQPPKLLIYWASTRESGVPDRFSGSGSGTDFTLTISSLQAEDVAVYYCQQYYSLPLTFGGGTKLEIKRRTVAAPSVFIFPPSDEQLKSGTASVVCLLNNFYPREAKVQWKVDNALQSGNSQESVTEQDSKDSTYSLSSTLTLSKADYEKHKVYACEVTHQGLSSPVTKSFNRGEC
[1]
  NT50 (B.1.617.2) (nM), pseudovirus neutralization: 0.15 nM
[2]
  NT50 (B.1.351) (nM), pseudovirus neutralization: 0.35 nM
